Test results published in patent publication US20240343781A1 (published 2024).

B1: 11-11 (antibody, V domains shown)
VH: QVQLQESGPGLVKPSQTLSLTCTVSGGSISSGGYYWSWIRQHPGKGLEWIGYIYYSGSTYYNPSLKSRVTISVDTSKNQFSLKVSSVTAADTAVYYCASSNYYDGSGYNLLESYGMDVWGQGTSVTVSS
VL: QSVLTQPPSVSGAPGQRVTISCTGSSSNIGAGYDVHWYQQLPGTAPKLLIYGNSNRPSGVPDRFSGSRSGTSASLAITGLQAEDEADYYCQSYDSSLSGSWVFGGGTKVTVL
B2: 10-28 (antibody, V domains shown)
VH: QVQLVESGGGVVQPGRSLRLSCAASGFTFSSYDMHWVRQAPGKGLEWVAVISYDGSSKFYAESVKGRFTISRDNSKNTLYLQMNSLRAEETAVYYCVKDGEQLVPLFDYWGQGTLVTVSS
VL: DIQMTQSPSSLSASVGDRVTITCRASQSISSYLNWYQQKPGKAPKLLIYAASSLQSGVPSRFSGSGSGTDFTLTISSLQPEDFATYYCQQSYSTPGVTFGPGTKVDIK
B3: 10-40 (antibody, V domains shown)
VH: QLQLQESGPGLVKPSETLSLTCTVSGGSISSSNFYWGWIRQPPGKGLEWIASITYSGRTFYNPSLKSRVAISVDTSKNQFSLKLSSVTAADTAVYYCARTFPSYYDRSGYHYLNYGMDVWGQGTTVTVSS
VL: NFMLTQPHSMSESPGKTVTISCTRSSGSIASNYVQWYQQRPGSSPTTVIYEDNQRPSGVPDRFSGSIDSSSNSASLTISGLKTEDEADYYCQSYDSSSWVFGGGTKLTVL
B4: engineered monoclonal antibody 11-11 (antibody, V domains shown)
VH: B1 VH
VL: B1 VL
B5: engineered monoclonal antibody 10-28 (antibody, V domains shown)
VH: B2 VH
VL: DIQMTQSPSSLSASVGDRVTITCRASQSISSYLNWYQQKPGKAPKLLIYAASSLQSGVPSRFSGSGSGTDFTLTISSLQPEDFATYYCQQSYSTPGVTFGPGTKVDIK
B6: engineered monoclonal antibody 10-40 (antibody, V domains shown)
VH: B3 VH
VL: B3 VL

target: Yunnan2011; experiment: ELISA

| Binder | EC50 [ng/mL] |
| --- | --- |
| B1 | > 10000 |
| B2 | 9 |
| B3 | 37 |

target: RmYN02; experiment: ELISA

| Binder | EC50 [ng/mL] |
| --- | --- |
| B1 | > 10000 |
| B2 | 6 |
| B3 | 10 |

target: BtKY72; experiment: ELISA

| Binder | EC50 [ng/mL] |
| --- | --- |
| B1 | 7 |
| B2 | 4 |
| B3 | 4 |

target: WIV1; experiment: ELISA

| Binder | EC50 [ng/mL] |
| --- | --- |
| B1 | 6 |
| B2 | 3 |
| B3 | 4 |

target: Rf1; experiment: ELISA

| Binder | EC50 [ng/mL] |
| --- | --- |
| B1 | > 10000 |
| B2 | 4 |
| B3 | 4 |

target: RaTG13; experiment: ELISA

| Binder | EC50 [ng/mL] |
| --- | --- |
| B1 | > 10000 |
| B2 | 2 |
| B3 | 3 |

target: SARS-CoV; experiment: ELISA

| Binder | EC50 [ng/mL] |
| --- | --- |
| B1 | 19 |
| B2 | 5 |
| B3 | 8 |

target: GX-Pangolin; experiment: ELISA

| Binder | EC50 [ng/mL] |
| --- | --- |
| B1 | > 10000 |
| B2 | 4 |
| B3 | 4 |

target: SHC014; experiment: ELISA

| Binder | EC50 [ng/mL] |
| --- | --- |
| B1 | 6 |
| B2 | 2 |
| B3 | 5 |

target: Rs4081; experiment: ELISA

| Binder | EC50 [ng/mL] |
| --- | --- |
| B1 | > 10000 |
| B2 | 7 |
| B3 | 9 |

target: BM-4831; experiment: ELISA

| Binder | EC50 [ng/mL] |
| --- | --- |
| B1 | 1500 |
| B2 | 2 |
| B3 | 3 |

target: SARS-CoV-2 Spike; experiment: SPR

| Binder | Kd [pM] |
| --- | --- |
| B1 | 1540 |
| B2 | 0.782 |
| B3 | 4.52 |

target: SARS-COV spike trimer (SARS-CoV, UniProt P59594 14-1190); experiment: SPR

| Binder | Kd [pM] |
| --- | --- |
| B4 | 4.51 |
| B5 | 3.69 |
| B6 | 2.21 |
